Legend:
[1] = target: recombinant human VEGF (human) (UniProt P15692); experiment: cell-based or functional assay
rabbit VEGF (rabbit) = rabbit VEGF (rabbit) (UniProt G1T1L9); experiment: SPR, summary table, column Rabbit VEGF, Kd [M]

Chain of recombinant human VEGF (human) (P15692 other isoform, or with tags, fused parts or gaps limits assumed): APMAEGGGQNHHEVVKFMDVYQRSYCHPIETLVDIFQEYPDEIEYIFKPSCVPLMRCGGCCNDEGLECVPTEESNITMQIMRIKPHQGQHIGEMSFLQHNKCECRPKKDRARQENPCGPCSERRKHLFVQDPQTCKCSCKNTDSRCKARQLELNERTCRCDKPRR

Work on aflibercept (Fc fusion) yielded an IC50, VEGF reporter assay (KDR/NFAT-RE HEK293 cells, luminescence) [1] of 0.75 nM and a Kd (rabbit VEGF (rabbit)) of 1.41 nM.
